Source: patent US20200308267A1 (Boehringer Ingelheim, published 2020)
Substitutions are numbered along the chain they refer to. Read-outs that look alike come from different tables or passages of the source.

B1: VEGFBII23B04 (VHH, not shown: small tags and cut ends)
VHH: EVQLVESGGGLVQTGDSLRLSCEVSGRTFSSYSMGWFRQAQGKEREFVVAISKGGYKYDSVSLEGRFTISKDNAKNTVYLQINSLKPEDTAVYYCASSRAYGSSRLRLADTYEYWGQGTQVTVSS
notes: also purified from E. coli TG1; also called VEGFBII23B4; VEGFBII23B04 (wt)
B2: VEGFBII022 (VHH, not shown: small tags and cut ends)
chain: EVQLVESGGGLVQTGDSLRLSCEVSGRTFSSYSMGWFRQAQGKEREFVVAISKGGYKYDSVSLEGRFTISKDNAKNTVYLQINSLKPEDTAVYYCASSRAYGSSRLRLADTYEYWGQGTQVTVSSGGGGSGGGSEVQLVESGGGLVQPGGSLRLSCVASGIRFMSMAWYRQAPGKHRELVARISSGGTTAYVDSVKGRFTISRDNSKNTVYLQMNSLKAEDTAVYYCNTFSSRPNPWGAGTQVTVSS
B3: VEGFBII023 (VHH, not shown: small tags and cut ends)
chain: EVQLVESGGGLVQTGDSLRLSCEVSGRTFSSYSMGWFRQAQGKEREFVVAISKGGYKYDSVSLEGRFTISKDNAKNTVYLQINSLKPEDTAVYYCASSRAYGSSRLRLADTYEYWGQGTQVTVSSGGGGSGGGGSGGGGSGGGGSGGGGSGGGGSGGGGSGGGGSEVQLVESGGGLVQAGGSLRLSCAASGRTFSNYAMGWFRQAPGKERVLVADISSSGINTYVADAVKGRFTISRDNAKNTVYLQMNSLKPEDTAVYYCAASAWWYSQMARDNYRYWGQGTQVTVSS
B4: VEGFBII024 (VHH, not shown: small tags and cut ends)
chain: EVQLVESGGGLVQTGDSLRLSCEVSGRTFSSYSMGWFRQAQGKEREFVVAISKGGYKYDSVSLEGRFTISKDNAKNTVYLQINSLKPEDTAVYYCASSRAYGSSRLRLADTYEYWGQGTQVTVSSGGGGSGGGGSGGGGSGGGGSGGGGSGGGGSGGGGSGGGGSEVQLVESGGGLVQAGGSLRLSCTASGSAFKSYRMGWFRRTPGKEDEFVASISWTYGSTFYADSVKGRFTMSRDKAKNAGYLQMNSLKPEDTALYYCAAGAQSDRYNIRSYDYWGQGTQVTVSS
B5: VEGFBII025 (VHH, not shown: small tags and cut ends)
chain: EVQLVESGGGLVQAGGSLRLSCAASGRTFSNYAMGWFRQAPGKERVLVADISSSGINTYVADAVKGRFTISRDNAKNTVYLQMNSLKPEDTAVYYCAASAWWYSQMARDNYRYWGQGTQVTVSSGGGGSGGGGSGGGGSGGGGSGGGGSGGGGSGGGGSGGGGSEVQLVESGGGLVQTGDSLRLSCEVSGRTFSSYSMGWFRQAQGKEREFVVAISKGGYKYDSVSLEGRFTISKDNAKNTVYLQINSLKPEDTAVYYCASSRAYGSSRLRLADTYEYWGQGTQVTVSS
B6: VEGFBII037 (VHH)
VHH: DVQLVESGGGLVQPGGSLRLSCAASGRTFSSYSMGWFRQAPGKEREFVVAISKGGYKYDAVSLEGRFTISRDNAKNTVYLQMNSLRPEDTAVYYCASSRAYGSSRLRLADTYEYWGQGTLVTVSS
B7: VEGFBII038 (VHH)
VHH: B6 VHH with M82I
B8: VEGFBII23A06 (VHH, not shown: small tags and cut ends)
VHH: EVQLVESGGGLVQPGDSLKLSCAFSGRTFSSYSMGWFRQAQGKEREFVVAISSGGFIYDAVSLEGRFTISRDNTKNTVYLQTPSLKPEDTAVYYCAASRAYGSSRLRLADTYDYWGQGTQVTVSS
notes: also purified from E. coli TG1; also called VEGFBII23A6; 23A6
B9: VEGFBII24C04 (VHH, not shown: small tags and cut ends)
VHH: B8 VHH with A23V, F24A, F29S, F56Y, A60S, E64Q
notes: also purified from E. coli TG1; also called VEGFBII24C4

What was measured:
[1] = molecular target: T1, recombinant human VEGF165 (human, UniProt P15692-4 27-191, biotinylated (Sulfo-NHS-LC-Biotin) in the competition assays); assay: Biacore, periplasmic extract, VEGF165 chip, two phase decay fit; design: unit not given here
T1 construct: also called hVEGF165; rhVEGF165
Protocol: Dissociation rates of inhibitory VHHs are analyzed on Biacore (Biacore T100 instrument, GE Healthcare). HBS-EP+ buffer is used as running buffer and experiments are performed at 25° C. […] After immobilization, surfaces are deactivated with 10 min injection of 1 M ethanolamine pH8.5. A reference surface is activated and deactivated with respectively EDC/NHS and ethanolamine. Periplasmic extracts of VHHs are injected at a 10-fold dilution in running buffer for 2 min at 45 μl/min and allowed to dissociate for 10 or 15 min. Between different samples, the surfaces are regenerated with regeneration buffer. Data are double referenced by subtraction of the curves on the reference channel and of a blank running buffer injection. […] is evaluated by fitting a two phase decay model in the Biacore T100 Evaluation software v2.0.1.

VEGF [2] = assay: cell-based or functional assay
VEGF [3] = assay: cell-based or functional assay; remark: listed apart in the source
[4] = molecular target: T1, recombinant human VEGF165; assay: SPR Biacore T100, VEGF165 chip, Two State Reaction fit
Protocol: Samples are injected for 2 min and allowed to dissociate up to 20 min at a flow rate of […]. In between sample injections, the chip surface is regenerated with 100 mM HCl. HBS-EP+(Hepes buffer pH7.4+EDTA) is used as running buffer. Binding curves are fitted using a Two State Reaction model by Biacore T100 Evaluation Software v2.0.1.
^{(a)}Heterogeneous binding curve resulting in no 1:1 fit, curves are fitted using a Two State Reaction model by Biacore T100 Evaluation Software v2.0.1

VEGF [5] = assay: cell-based or functional assay; remark: listed apart in the source
VEGF [6] = assay: cell-based or functional assay; remark: listed apart in the source
VEGF [7] = assay: cell-based or functional assay; remark: listed apart in the source
[8] = molecular target: T2, recombinant mouse VEGF164 (mouse, UniProt Q00731-2 27-190, biotinylated in the AlphaScreen); assay: binding ELISA, coated rmVEGF164
T2 construct: also called mVEGF164; rmVEGF164
T2 sequence (looked up): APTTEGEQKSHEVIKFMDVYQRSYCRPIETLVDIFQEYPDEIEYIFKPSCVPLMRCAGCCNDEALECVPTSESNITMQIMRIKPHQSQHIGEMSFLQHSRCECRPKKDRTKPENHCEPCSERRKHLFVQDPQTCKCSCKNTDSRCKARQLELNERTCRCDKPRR
Protocol: Cross-reactivity to mouse VEGF164 is determined using a binding ELISA. […] Wells are blocked with a casein solution (1% in PBS). […] A mouse VEGF164 reactive mAb is included as positive control.

VEGF, sequence (P15692 whole entry): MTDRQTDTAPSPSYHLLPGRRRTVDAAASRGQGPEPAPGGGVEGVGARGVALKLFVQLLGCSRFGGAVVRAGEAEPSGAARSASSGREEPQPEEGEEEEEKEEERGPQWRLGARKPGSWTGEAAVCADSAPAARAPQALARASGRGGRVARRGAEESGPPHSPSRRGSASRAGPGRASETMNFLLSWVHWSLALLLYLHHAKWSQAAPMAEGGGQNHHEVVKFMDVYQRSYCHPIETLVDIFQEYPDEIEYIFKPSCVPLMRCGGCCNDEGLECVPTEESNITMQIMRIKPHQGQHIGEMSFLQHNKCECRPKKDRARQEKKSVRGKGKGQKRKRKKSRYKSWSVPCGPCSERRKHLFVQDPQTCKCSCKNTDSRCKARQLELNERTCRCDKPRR

Binder | kd(fast) [1] | kd(slow) [1] | HUVEC proliferation, % inhibition (VEGF [2]) [%] | HUVEC proliferation, IC50 (VEGF [2]) [nM] | ka1 [4] [M⁻¹ s⁻¹] | kd1 [4] [s⁻¹] | HUVEC proliferation, % inhibition (VEGF [5]) [%] | HUVEC proliferation, IC50 (VEGF [5]) [nM] | HUVEC proliferation, % inhibition (VEGF [6]) [%] | HUVEC proliferation, IC50 (VEGF [6]) [nM] | HUVEC Erk phosphorylation, % inhibition (VEGF [7]) [%] | HUVEC Erk phosphorylation, IC50 (VEGF [7]) [nM] | also measured
B1 | 0.0088 | 4e-05 | 91 | 0.36 | 210000 | 0.0086 | 92 | 0.68 |  |  |  |  | HUVEC Erk phosphorylation, IC50 (VEGF [3]): 0.37 nM
B2 |  |  |  |  |  |  |  |  | 100 | 0.34 | 94 | 0.18 | 
B3 |  |  |  |  |  |  |  |  | 98 | 0.52 | 100 | 0.25 | 
B4 |  |  |  |  |  |  |  |  | 96 | 0.38 | 94 | 0.23 | 
B5 |  |  |  |  |  |  |  |  | 104 | 0.41 | 99 | 0.23 | 
B6 |  |  |  |  |  |  | 78 | 1.54 |  |  |  |  | 
B7 |  |  |  |  |  |  | 92 | 0.6 |  |  |  |  | 
B8 | 0.017 | 3.7e-05 | 73 | 4.29 | 420000 | 0.057 |  |  |  |  |  |  | 
B9 | 0.013 | 3.4e-05 | 79 | 3.8 | 320000 | 0.026 |  |  |  |  |  |  | binding result [8]: no binding (tested: 500 nM)
